Data from patent publication US20180037622A1.

T1: Growth and Differentiation Factor-11 (GDF11) (UniProt O95390)
T1 sequence (looked up): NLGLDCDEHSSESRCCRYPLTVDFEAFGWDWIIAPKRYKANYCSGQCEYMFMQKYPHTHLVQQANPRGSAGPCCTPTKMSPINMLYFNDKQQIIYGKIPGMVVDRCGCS

T2: Activin A (UniProt P08476)
T2 sequence (looked up): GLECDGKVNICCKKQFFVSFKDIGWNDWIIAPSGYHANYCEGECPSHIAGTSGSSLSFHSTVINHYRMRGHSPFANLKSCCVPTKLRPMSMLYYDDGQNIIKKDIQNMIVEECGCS

B1: ActRIIB(20-131)-hFc (Fc fusion, not shown: a dimerising Fc or GST)
chain: GRGEAETRECIYYNANWELERTNQSGLERCEGEQDKRLHCYASWRNSSGTIELVKKGCWLDDFNCYDRQECVATEENPQVYFCCCEGNFCNERFTHLPEAGGPEVTYEPPPT
B2: ActRIIB-Fc A64 20-134 (Fc fusion, not shown: a dimerising Fc or GST)
chain: GRGEAETRECIYYNANWELERTNQSGLERCEGEQDKRLHCYASWANSSGTIELVKKGCWLDDFNCYDRQECVATEENPQVYFCCCEGNFCNERFTHLPEAGGPEVTYEPPPTAPT
B3: ActRIIB(20-128)-hFc (Fc fusion, not shown: a dimerising Fc or GST)
chain: GRGEAETRECIYYNANWELERTNQSGLERCEGEQDKRLHCYASWRNSSGTIELVKKGCWLDDFNCYDRQECVATEENPQVYFCCCEGNFCNERFTHLPEAGGPEVTYEP
B4: ActRIIB(20-132)-hFc (Fc fusion, not shown: a dimerising Fc or GST)
chain: GRGEAETRECIYYNANWELERTNQSGLERCEGEQDKRLHCYASWRNSSGTIELVKKGCWLDDFNCYDRQECVATEENPQVYFCCCEGNFCNERFTHLPEAGGPEVTYEPPPTA
B5: ActRIIB(21-131)-hFc (Fc fusion, not shown: a dimerising Fc or GST)
chain: RGEAETRECIYYNANWELERTNQSGLERCEGEQDKRLHCYASWRNSSGTIELVKKGCWLDDFNCYDRQECVATEENPQVYFCCCEGNFCNERFTHLPEAGGPEVTYEPPPT
B6: ActRIIB(22-131)-hFc (Fc fusion, not shown: a dimerising Fc or GST)
chain: GEAETRECIYYNANWELERTNQSGLERCEGEQDKRLHCYASWRNSSGTIELVKKGCWLDDFNCYDRQECVATEENPQVYFCCCEGNFCNERFTHLPEAGGPEVTYEPPPT
B7: ActRIIB(23-131)-hFc (Fc fusion, not shown: a dimerising Fc or GST)
chain: EAETRECIYYNANWELERTNQSGLERCEGEQDKRLHCYASWRNSSGTIELVKKGCWLDDFNCYDRQECVATEENPQVYFCCCEGNFCNERFTHLPEAGGPEVTYEPPPT
B8: ActRIIB(24-131)-hFc (Fc fusion, not shown: a dimerising Fc or GST)
chain: AETRECIYYNANWELERTNQSGLERCEGEQDKRLHCYASWRNSSGTIELVKKGCWLDDFNCYDRQECVATEENPQVYFCCCEGNFCNERFTHLPEAGGPEVTYEPPPT

The binders below were run against T1, Growth and Differentiation Factor-11 (GDF11) (assay: cell-based or functional assay).

IC50 [µg/mL]	GDF11 Inhibition Activity (KI) [nM]	Binder
0.12		B1
	1000	B2
0.13		B3
0.087		B4

What follows are binders tested against T2, Activin A (assay: cell-based or functional assay).

IC50 [µg/mL]	Activin Inhibition Activity (KI) [nM]	Binder
0.044		B1
	1000	B2
0.158		B3
0.032		B4

Target: T1, Growth and Differentiation Factor-11 (GDF11)
Experiment: cell-based or functional assay
Remark: another data set of the same source

IC50 [µg/mL]	Binder
0.183	B1
0.121	B5
0.071	B6
0.06	B7
0.069	B8

Target: T2, Activin A
Experiment: cell-based or functional assay
Remark: another data set of the same source

IC50 [µg/mL]	Binder
0.201	B1
0.325	B5
0.1	B6
0.043	B7
0.105	B8
